Like-named read-outs stand apart in the source and are kept apart here.
Assays:
[1] = system: Ramos cell surface (protein target not named in document) (Homo sapiens); conditions: 3' biotin, Ramos cell capture efficiency in microfluidic device
[2] = system: CEM cell surface receptor bound by sgc8 (protein not named in document) (Homo sapiens); assay: flow; conditions: whole CEM cells

Q: With “AACACCGTGGAGGATAGTTCGGTGGCTGTTCAGGGTCTCCTCCCGGTG [AuNP-TD05]” as the sequence, how does the activity ([1]; 5' thiol-(PEG)24 on gold nanoparticle) read?
A: 90 % capture

Q: Which activity ([1]; 3' T10 linker, aptamer alone) does the source give for “AACACCGTGGAGGATAGTTCGGTGGCTGTTCAGGGTCTCCTCCCGGTGTTTTTTTTTT [TD05]” here?
A: 41 % capture

Q: With “ATCTAACTGCTGCGCCGCCGGGAAAATACTGTACGGTTAGA [AuNP-sgc8]” as the sequence, how does the Kd ([2]; 5' thiol-(PEG)24 on 13.6 nm gold nanoparticle, about 95 aptamers per particle, 3' biotin or FITC, multivalent gold nanoparticle conjugate) read?
A: 0.1 nM

Q: For “ATCTAACTGCTGCGCCGCCGGGAAAATACTGTACGGTTAGATTTTTTTTTT [sgc8]”, which Kd ([2]; 3' T10 linker as printed in Table 1, 3' biotin for capture, FITC instead of biotin for flow) is on record?
A: 3.9 nM

Reference: US20160091489
